One molecule from patent US20240067758A1 (UCB, published 2024) can be followed below.

Residue numbers refer to the chain shown, from its start. Some results are limits rather than exact numbers.

The target in assay [1] is T1, Human IL22 (human, UniProt Q9GZX6 34-179).
T1 construct: IL22 of the Biacore and cell assays
T1 sequence: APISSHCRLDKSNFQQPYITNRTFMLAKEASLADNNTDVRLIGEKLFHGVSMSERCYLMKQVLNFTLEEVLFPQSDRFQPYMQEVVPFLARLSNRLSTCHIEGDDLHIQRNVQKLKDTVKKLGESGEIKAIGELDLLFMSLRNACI
In words: SPR; sample stressed 2 weeks at 37 °C, pH 8.0 (Asn95 of light chain CDR3 >40% deamidated). For orientation: SPR reads the build-up and loss of mass on a sensor chip optically.

Assay [2] addresses T1, Human IL22. In words: SPR; non-stressed T0 sample of the deamidation stress study.
The target of the next assay is T2, Mouse IL13 (mouse, UniProt P20109 26-131, limits assumed).
T2 sequence (looked up): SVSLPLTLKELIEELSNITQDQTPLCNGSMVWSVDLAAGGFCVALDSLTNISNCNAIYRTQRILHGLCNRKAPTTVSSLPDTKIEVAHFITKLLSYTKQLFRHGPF
In words: SPR Biacore T200; TrYbe captured on anti-human F(ab')2, mouse IL13 titrated.

Assay [3] has as its target T1, Human IL22. In words: cell-based or functional assay.
The target of assay [4] is T3, Human IL13 (human, UniProt P35225 35-146, limits assumed). The assay can be described thus: cell-based or functional assay.
For another assay, the target named is T4, Human Albumin (human, UniProt P02768 25-609).
T4 construct: also called human serum albumin; HSA
The assay can be described thus: SPR Biacore T200; TrYbe captured on anti-human F(ab')2, analyte 100-3 nM; mean KD.

The next assay concerns the target Mouse Albumin (mouse, UniProt P07724 25-608). The assay is described as above.
The target in a further assay is T5, Cynomolgus Albumin (cynomolgus, UniProt A2V9Z4 25-608).
T5 construct: also called Cyno Albumin
The assay is described as above.

Assay [5] has as its target T1, Human IL22. In words: SPR Biacore T200; TrYbe captured on anti-human F(ab')2, analyte 10-0.3125 nM; mean KD.
Experimental: (§1) BIA (Biomolecular Interaction Analysis) was performed using T200 (GE Healthcare). Affinipure IgG-F(ab′)₂ Fragment goat anti-human IgG, F(ab′)₂ fragment specific (Jackson ImmunoResearch) was immobilized on a CM5 Sensor Chip via amine coupling chemistry to a capture level of ˜5000 response units (RUs). HBS-EP+buffer (10 mM HEPES pH 7.4, 0.15 M NaCl, 3 mM EDTA, 0.05% Surfactant P20, GE Healthcare) was used as the running buffer with a flow rate of 10 μL/min.
(§2) The surface was generated by 2×10 μL injections of 50 mM HCl, interspersed by a 10 μL injection of 5 mM NaOH at flowrate of 10 μL/min. Background subtraction binding curves were analyzed using the T200 evaluation software (version 3.0) following standard procedures. Kinetic parameters were determined from the fitting algorithm.
The target of the next assay is T6, Cynomolgus IL22 (cynomolgus, UniProt G7PHZ7 34-179).
T6 construct: also called Cyno IL22; Cyno IL-22
T6 sequence: T1 sequence with I3V, L32S, H48R, F72L, R95S, R110K
The assay is described as above.

Assay [6] concerns the target T3, Human IL13. The description is as above.
Experimental: as §1, §2
For another assay, the target named is T7, Mouse IL22 (mouse, UniProt Q9JJY9 34-179).
T7 sequence (looked up): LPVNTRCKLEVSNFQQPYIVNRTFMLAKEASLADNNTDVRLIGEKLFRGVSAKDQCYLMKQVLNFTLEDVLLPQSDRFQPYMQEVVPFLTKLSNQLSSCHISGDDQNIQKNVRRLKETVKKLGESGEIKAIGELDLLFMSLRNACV
Described as above.

Another assay addresses T8, Cynomolgus IL13 (cynomolgus, UniProt Q0PW92 21-132).
T8 construct: also called Cyno IL-13
The assay is described as above.

Experimental for Cynomolgus Albumin: as §1, §2
Experimental for Cynomolgus IL13: as §1, §2
Experimental for Cynomolgus IL22: as §1, §2
Experimental for Human Albumin: as §1, §2
Experimental for Mouse Albumin: as §1, §2
Experimental for Mouse IL22: as §1, §2

B1: IL13/IL22 TrYbe (other)
heavy: EVQLVESGGGLVQPGGSLRLSCAVSGFSLSSYAMIWVRQAPGKGLEWIGIIDIEGSTYYASWAKGRFTISRDNSKNTVYLQMNSLRAEDTAVYYCARDRFVGVDIFDPWGQGTLVTVSSASTKGPSVFPLAPSSKSTSGGTAALGCLVKDYFPEPVTVSWNSGALTSGVHTFPAVLQSSGLYSLSSVVTVPSSSLGTQTYICNVNHKPSNTKVDKKVEPKSCSGGGGSGGGGSEVQLLESGGGLVQPGGSLRLSCAVSGIDLSNYAINWVRQAPGKCLEWIGIIWASGTTFYATWAKGRFTISRDNSKNTVYLQMNSLRAEDTAVYYCARTVPGYSTAPYFDLWGQGTLVTVSSGGGGSGGGGSGGGGSGGGGSDIQMTQSPSSVSASVGDRVTITCQSSPSVWSNFLSWYQQKPGKAPKLLIYEASKLTSGVPSRFSGSGSGTDFTLTISSLQPEDFATYYCGGGYSSISDTTFGCGTKVEIKRT
light: AVQLTQSPSSLSASVGDRVTITCQASEDIYTNLAWYQQKPGKAPKLLIYWASTLASGVPSRFSGSGSGTDFTLTISSLQPEDFATYYCQASVYGNAADSRYTFGGGTKVEIKRTVAAPSVFIFPPSDEQLKSGTASVVCLLNNFYPREAKVQWKVDNALQSGNSQESVTEQDSKDSTYSLSSTLTLSKADYEKHKVYACEVTHQGLSSPVTKSFNRGECSGGGGSGGGGSEVQLVQSGAEVKKPGSSVKVSCKASGYSFTSYYIHWVRQAPGQCLEWMGRIGPGSGDINYNEKFKGRATFTVDKSTSTAYMELSSLRSEDTAVYYCARFHYDGADWGQGTLVTVSSGGGGSGGGGSGGGGSGGGGSDIQMTQSPSSLSASVGDRVTITCKASQNINENLDWYQQKPGKAPKLLIYYTDILQTGIPSRFSGSGSGTDYTLTISSLQPEDFATYYCYQYYSGYTFGCGTKLEIKRT
notes: also called batches PB8056 and PB7916
As for B1, the Kd with Human IL22 [1] is 0.03 nM; with Human IL22 [2], 0.026 nM; with Human Albumin it was 1 to 3 nM; with Mouse Albumin it was 5 to 6 nM; with Cynomolgus Albumin, 1 to 3 nM; with Human IL22 [5], below 0.1 nM. Besides, the Kd is below 0.1 nM with Cynomolgus IL22, below 0.1 nM in the assay with Human IL13 [6], 14 to 25 nM in the assay with Mouse IL22 and below 0.25 nM in the assay with Cynomolgus IL13. Besides, the koff is 3.2e-05 s⁻¹ with Human IL22 [1] and 3.1e-05 s⁻¹ in the assay with Human IL22 [2]. The figures for the kon in the assay with Human IL22 [1] and with Human IL22 [2] were 1.1e+06 M⁻¹ s⁻¹ and 1.2e+06 M⁻¹ s⁻¹, respectively. The binding result with Mouse IL13 is recorded as “no binding (tested: 10 nM to 0.3125 nM)”. In the assay with Human IL22 [3], the “IC50 (M) Geomean; IL22-induced IL-10 release, COLO205 cells; batch PB7916 (N = 4)” value is 3.4e-11 M. In addition, the “IC50 (M) Geomean; IL22-induced IL-10 release, COLO205 cells; batch PB8056 (N = 4)” value with Human IL22 [3] stood at 3.66e-11 M. Further, in the assay with Human IL13 [4], the “IC50 (read off the curve), inhibition of eotaxin-3 secretion, primary human keratinocytes stimulated with IL-13 and IL-22 at 100 ng/ml” value was around 6 nM.

Broadly, the Kd is the constant that tells how readily two partners part at equilibrium. What is called koff is the first-order rate constant of dissociation. Low readings indicate a long-lived complex, high ones a short-lived complex. The kon is the second-order rate constant of association. A lower kon goes with slower complex formation.
